# B1: PgaB (PgaB-1-672) (enzyme, E. coli, UniProt P75906 21-672, looked up)
# chain: CISQSRTSFIPPQDRESLLAEQPWPHNGFVAISWHNVEDEAADQRFMSVRTSALREQFAWLRENGYQPVSIAQIREAHRGGKPLPEKAVVLTFDDGYQSFYTRVFPILQAFQWPAVWAPVGSWVDTPADKQVKFGDELVDREYFATWQQVREVARSRLVELASHTWNSHYGIQANATGSLLPVYVNRAYFTDHARYETAAEYRERIRLDAVKMTEYLRTKVEVNPHVFVWPYGEANGIAIEELKKLGYDMFFTLESGLANASQLDSIPRVLIANNPSLKEFAQQIITVQEKSPQRIMHIDLDYVYDENLQQMDRNIDVLIQRVKDMQISTVYLQAFADPDGDGLVKEVWFPNRLLPMKADIFSRVAWQLRTRSGVNIYAWMPVLSWDLDPTLTRVKYLPTGEKKAQIHPEQYHRLSPFDDRVRAQVGMLYEDLAGHAAFDGILFHDDALLSDYEDASAPAITAYQQAGFSGSLSEIRQNPEQFKQWARFKSRALTDFTLELSARVKAIRGPHIKTARNIFALPVIQPESEAWFAQNYADFLKSYDWTAIMAMPYLEGVAEKSADQWLIQLTNQIKNIPQAKDKSILELQAQNWQKNGQHQAISSQQLAHWMSLLQLNGVKNYGYYPDNFLHNQPEIDLIRPEFSTAWYPKND
# modifications: C21 lipidated (residues 1-20 are a signal sequence that is cleaved during periplasmic targeting)
# notes: signal peptide in the construct; Untagged; also called full-length PgaB; untagged PgaB; source: E. coli BL21: co-expressed with His-PgaA constructs, in DDM extract or co-purified; also separately expressed, cell pellet mixed with the PgaA pellet before lysis
# B2: PgaB: soluble E. coli PgaB residues 22–672, de-N-acetylase and glycoside hydrolase (protein)
# chain: CISQSRTSFIPPQDRESLLAEQPWPHNGFVAISWHNVEDEAADQRFMSVRTSALREQFAWLRENGYQPVSIAQIREAHRGGKPLPEKAVVLTFDDGYQSFYTRVFPILQAFQWPAVWAPVGSWVDTPADKQVKFGDELVDREYFATWQQVREVARSRLVELASHTWNSHYGIQANATGSLLPVYVNRAYFTDHARYETAAEYRERIRLDAVKMTEYLRTKVEVNPHVFVWPYGEANGIAIEELKKLGYDMFFTLESGLANASQLDSIPRVLIANNPSLKEFAQQIITVQEKSPQRIMHIDLDYVYDENLQQMDRNIDVLIQRVKDMQISTVYLQAFADPDGDGLVKEVWFPNRLLPMKADIFSRVAWQLRTRSGVNIYAWMPVLSWDLDPTLTRVKYLPTGEKKAQIHPEQYHRLSPFDDRVRAQVGMLYEDLAGHAAFDGILFHDDALLSDYEDASAPAITAYQQAGFSGSLSEIRQNPEQFKQWARFKSRALTDFTLELSARVKAIRGPHIKTARNIFALPVIQPESEAWFAQNYADFLKSYDWTAIMAMPYLEGVAEKSADQWLIQLTNQIKNIPQAKDKSILELQAQNWQKNGQHQAISSQQLAHWMSLLQLNGVKNYGYYPDNFLHNQPEIDLIRPEFSTAWYPKND
# modifications: C21 lipidated (residues 1-20 are a signal sequence that is cleaved during periplasmic targeting)
# notes: soluble E. coli PgaB residues 22–672, de-N-acetylase and glycoside hydrolase
# Experiments:
# [1] = biological target: T1, PgaA-220-367 (Escherichia coli, UniProt P69434); experiment: Tryptophan quenching, wild-type PgaA-220-367; assay type: binding, E. coli; conditions: substrate concentration 4.5 mM
# T1 construct: His6 (thrombin cleavable, pET28) (N); made in house; host or cells: E. coli BL21 CodonPlus (DE3)
# T1 sequence (P69434 220-367): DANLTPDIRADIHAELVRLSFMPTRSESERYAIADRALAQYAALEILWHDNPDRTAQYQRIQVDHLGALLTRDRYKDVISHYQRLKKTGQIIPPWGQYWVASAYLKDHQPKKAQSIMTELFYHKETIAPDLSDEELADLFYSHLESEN
# Protocol: Fluorescence measurements were carried out at 20°C in a quartz cuvette (type no. 115F-QS; Hellma Analytics) using a PTI QuantaMaster 80 steady-state fluorometer (Photon Technology International), with a 4-nm bandwidth for both excitation and emission and a speed of 2 nm/s. Fluorescence spectra were collected between 300 nm and 400 nm with an excitation wavelength of 280 nm and a peak emission wavelength of 334 nm. All samples were prepared in triplicates 10 minutes ahead of the collection in a solution containing 1 μM protein, 20 mM Tris buffer pH 8.0, 150 mM sodium chloride and 1 mM concentrations of dPNAG oligomers. Data measured for each sample was corrected for ligand fluorescence and inner filter effect. […] To obtain an approximate binding affinity the dPNAG oligomer concentration was varied between 0–10 mM.
# [2] = biological target: T2, His-PgaA (PgaA-32-807) (E. coli K-12, UniProt P69434 32-807); experiment: co-purification (NiNTA, gel filtration) with SDS-PAGE; His-PgaA and PgaB constructs co-expressed in BL21, extracted with 1% DDM, purified by NiNTA and gel filtration (20 mM Tris pH 8, 150 mM NaCl, 0.1% DDM); Coomassie gel of the purified complexes; conditions: partners not purified
# T2 construct: also called His-PgaA-32-807; full-length PgaA; source: E. coli BL21: co-expressed with PgaB, in DDM extract of the lysate pellet (pull-down); expressed alone or with PgaB and purified (NiNTA, gel filtration, DDM); not shown: His6, N-terminal, kept
# T2 sequence (looked up): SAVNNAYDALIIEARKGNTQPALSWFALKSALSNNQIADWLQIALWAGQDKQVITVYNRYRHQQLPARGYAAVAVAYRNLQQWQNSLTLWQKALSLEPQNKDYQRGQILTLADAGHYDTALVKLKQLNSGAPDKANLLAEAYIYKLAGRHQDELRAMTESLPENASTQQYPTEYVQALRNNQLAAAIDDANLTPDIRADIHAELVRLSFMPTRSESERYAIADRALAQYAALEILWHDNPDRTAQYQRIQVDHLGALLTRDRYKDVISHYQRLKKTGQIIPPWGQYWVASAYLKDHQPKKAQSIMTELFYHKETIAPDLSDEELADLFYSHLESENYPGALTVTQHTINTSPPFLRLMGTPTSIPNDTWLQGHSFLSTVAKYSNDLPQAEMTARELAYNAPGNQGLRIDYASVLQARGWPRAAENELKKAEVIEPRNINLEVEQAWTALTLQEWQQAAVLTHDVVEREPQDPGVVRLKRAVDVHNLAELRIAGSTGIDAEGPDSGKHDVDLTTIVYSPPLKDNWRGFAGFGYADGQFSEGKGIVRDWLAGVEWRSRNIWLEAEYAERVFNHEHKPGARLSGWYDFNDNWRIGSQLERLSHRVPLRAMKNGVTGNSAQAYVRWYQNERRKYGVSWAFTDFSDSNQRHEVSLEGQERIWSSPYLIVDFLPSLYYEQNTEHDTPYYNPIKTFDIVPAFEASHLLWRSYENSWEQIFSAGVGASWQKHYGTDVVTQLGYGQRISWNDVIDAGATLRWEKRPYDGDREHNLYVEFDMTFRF
# [3] = system: Staphylococcus epidermidis strain SE801 biofilms; experiment: Crystal violet-based biofilm disruption assay (glycoside hydrolase activity); assay type: cell-based; conditions: S. epidermidis SE801 biofilm, 2 h, lower EC50 = higher glycoside hydrolase activity
# Protocol: To determine whether the modulation of enzyme activity might be a common theme for the TPR domain across synthase-dependent systems, we assayed the deacetylase and glycoside hydrolase activities of PgaB in the presence and absence of PgaA. As we used co-expression to obtain the complexes, a SDS PAGE gel of the purified solutions of PgaA, PgaB and PgaA/B complexes was analyzed to ensure that equal quantities of the protein/protein complex were used (Fig 2A). Consistent with previous published studies, PgaA and PgaB appear to form a 1:1 complex. The deacetylase activity was assessed using a fluorescamine-based assay with fully acetylated PNAG hexamers as the substrate. As fluorescamine detects the presence of primary amines, which are generated during the deacetylation of the PNAG oligosaccharide, this assay provides a direct readout of the deacetylation activity of PgaB. […] After a further 2 h, the reaction was quenched, plates washes and the amount of adherent biofilm remaining quantified using crystal violet staining. […]
# Cultures of S. epidermidis clinical isolate SE801 were grown overnight at 37°C with shaking at 200 rpm in LB broth without antibiotics. […] The remaining dye was solubilized with 100 μl of 95% (v/v) ethanol for 10 min with rotation, after which time the absorbance was measured at 595 nm.
# [4] = Fluorescamine de-acetylation assay; assay type: biochemical; conditions: 30 μM enzyme and 30 mM PNAG hexamer; fluorescamine readout
# Protocol: To determine whether the modulation of enzyme activity might be a common theme for the TPR domain across synthase-dependent systems, we assayed the deacetylase and glycoside hydrolase activities of PgaB in the presence and absence of PgaA. As we used co-expression to obtain the complexes, a SDS PAGE gel of the purified solutions of PgaA, PgaB and PgaA/B complexes was analyzed to ensure that equal quantities of the protein/protein complex were used (Fig 2A). Consistent with previous published studies, PgaA and PgaB appear to form a 1:1 complex. The deacetylase activity was assessed using a fluorescamine-based assay with fully acetylated PNAG hexamers as the substrate. As fluorescamine detects the presence of primary amines, which are generated during the deacetylation of the PNAG oligosaccharide, this assay provides a direct readout of the deacetylation activity of PgaB. To assess the glycoside hydrolase activity, we used a biofilm disruption assay, which has been used previously to characterize PgaB’s glycosidase activity. In this assay, biofilms of Staphylococcus epidermidis strain SE801 were grown in 96 well plates for 24 h, at which point PgaB was added. After a further 2 h, the reaction was quenched, plates washes and the amount of adherent biofilm remaining quantified using crystal violet staining. […]
molecule,measurement,setting,value
chitin,quenching of the signal at 334nm,[1],9%
B1,stoichiometry N,[2],1
B2,EC50,[3],302 ± 82.3 nM
same,concentration of GlcN produced,[4],988.6 ± 104.7 µM

# Reference: publication PMC9384988, “The TPR domain of PgaA is a multifunctional scaffold that binds PNAG and modulates PgaB-dependent polymer processing” (PLoS Pathogens, 2022)
